B1: Zinc finger MYM-type protein 2, residues 463 to 506; numbered along this chain, Q9UBW7 (parent)
chain: IMNCCEQCGEYLPSKGAGNNVLVIDGQQKRFCCQSCVSEYKQVG

± gives the uncertainty stated by the source.

The data set covers variants of B1. Nature of the data set: abundance fitness (aPCA) (normalised: wild type 0, dead -1); higher = more abundant; growth selection in yeast, the domain comes from the species named. The conditions noted are these: Homo sapiens.
For IMNCCEQCGEYLPSKGAGNNVLVIDGQQKRFCCQSGVSEYKQVG [C36G], the abundance fitness was -0.303 ± 0.081.

As to IMNCCEQCGEYLPSKGAGNNVLVIDGQQKRFCCQSNVSEYKQVG [C36N], the abundance fitness is -0.273 ± 0.34.

As for IMNCCEQCGEYLPSKGAGNNVLVIDGQQKRFCCQSSVSEYKQVG [C36S], the abundance fitness is -0.45 ± 0.086.

Consider IMNCCEQCGEYLPSKGAGNNVLVIDGQQKRFCCQSYVSEYKQVG [C36Y], for which the abundance fitness was -0.445 ± 0.15.

Take IMNCCEQCGEYLPSKGAGNNVLVIDGQQKRFCCQSIVSEYKQVG [C36I]: the abundance fitness worked out at 0.163 ± 0.3.

On to IMNCCEQCGEYLPSKGAGNNVLVIDGQQKRFCCQSDVSEYKQVG [C36D], for which the abundance fitness is -0.262 ± 0.16.

Turning to IMNCCEQCGEYLPSKGAGNNVLVIDGQQKRFCCQSPVSEYKQVG [C36P], the abundance fitness was -0.168 ± 0.22.

For the variant IMNCCEQCGEYLPSKGAGNNVLVIDGQQKRFCCQSEVSEYKQVG [C36E], the abundance fitness was -0.376 ± 0.092.

Take IMNCCEQCGEYLPSKGAGNNVLVIDGQQKRFCCQSTVSEYKQVG [C36T]: the abundance fitness was -0.106 ± 0.13.

In the case of IMNCCEQCGEYLPSKGAGNNVLVIDGQQKRFCCQSHVSEYKQVG [C36H], the abundance fitness was -0.341 ± 0.3.

Regarding IMNCCEQCGEYLPSKGAGNNVLVIDGQQKRFCCQSLVSEYKQVG [C36L], the abundance fitness is -0.423 ± 0.088.

As to IMNCCEQCGEYLPSKGAGNNVLVIDGQQKRFCCQSRVSEYKQVG [C36R], the abundance fitness is -0.37 ± 0.079.

On to IMNCCEQCGEYLPSKGAGNNVLVIDGQQKRFCCQSFVSEYKQVG [C36F], for which the abundance fitness is -0.665 ± 0.16.

Regarding IMNCCEQCGEYLPSKGAGNNVLVIDGQQKRFCCQSQVSEYKQVG [C36Q], the abundance fitness was -0.201 ± 0.098.

As to IMNCCEQCGEYLPSKGAGNNVLVIDGQQKRFCCQSVVSEYKQVG [C36V], the abundance fitness is -0.463 ± 0.091.

Turning to IMNCCEQCGEYLPSKGAGNNVLVIDGQQKRFCCNSCVSEYKQVG [Q34N], the abundance fitness was -0.028 ± 0.25.

Regarding IMNCCEQCGEYLPSKGAGNNVLVIDGQQKRFCCSSCVSEYKQVG [Q34S], the abundance fitness came to 0.009 ± 0.085.

Take IMNCCEQCGEYLPSKGAGNNVLVIDGQQKRFCCRSCVSEYKQVG [Q34R]: the abundance fitness was -0.232 ± 0.077.

With IMNCCEQCGEYLPSKGAGNNVLVIDGQQKRFCCPSCVSEYKQVG [Q34P], the abundance fitness was -0.033 ± 0.11.

IMNCCEQCGEYLPSKGAGNNVLVIDGQQKRFCCMSCVSEYKQVG [Q34M]: the abundance fitness came out at 0.044 ± 0.11.

As for IMNCCEQCGEYLPSKGAGNNVLVIDGQQKRFCCWSCVSEYKQVG [Q34W], the abundance fitness was -0.226 ± 0.082.

In the case of IMNCCEQCGEYLPSKGAGNNVLVIDGQQKRFCCYSCVSEYKQVG [Q34Y], the abundance fitness was -0.615 ± 0.47.

IMNCCEQCGEYLPSKGAGNNVLVIDGQQKRFCCVSCVSEYKQVG [Q34V]: the abundance fitness stood at 0.036 ± 0.084.

As for IMNCCEQCGEYLPSKGAGNNVLVIDGQQKRFCCTSCVSEYKQVG [Q34T], the abundance fitness is -0.031 ± 0.1.

On to IMNCCEQCGEYLPSKGAGNNVLVIDGQQKRFCCQSCVSEYQQVG [K41Q], for which the abundance fitness came to 0.006 ± 0.092.

IMNCCEQCGEYLPSKGAGNNVLVIDGQQKRFCCQSCVSEYGQVG [K41G]: the abundance fitness turned out to be 0.042 ± 0.09.

In the case of IMNCCEQCGEYLPSKGAGNNVLVIDGQQKRFCCQSCVSEYVQVG [K41V], the abundance fitness is -0.221 ± 0.094.

On to IMNCCEQCGEYLPSKGAGNNVLVIDGQQKRFCCQSCVSEYRQVG [K41R], for which the abundance fitness was determined as 0.03 ± 0.086.

Turning to IMNCCEQCGEYLPSKGAGNNVLVIDGQQKRFCCQSCVSEYPQVG [K41P], the abundance fitness was 0.014 ± 0.083.

Consider IMNCCEQCGEYLPSKGAGNNVLVIDGQQKRFCCQSCVSEYAQVG [K41A], for which the abundance fitness is -0.096 ± 0.086.

Take IMNCCEQCGEYLPSKGAGNNVLVIDGQQKRFCCQSCVSEYFQVG [K41F]: the abundance fitness was -0.285 ± 0.15.

For the variant IMNCCEQCGEYLPSKGAGNNVLVIDGQQKRFCCQSCVSEYLQVG [K41L], the abundance fitness was -0.122 ± 0.11.

With IMNCCEQCGEYLPSKGAGNNVLVIDGQQKRFCCQSCVSEYDQVG [K41D], the abundance fitness came out at 0.193 ± 0.12.

IMNCCEQCGEYLPSKGAGNNVLVIDGQQKRFCCQSCVSEYTQVG [K41T]: the abundance fitness is 0.209 ± 0.13.

Take IMNCCEQCGEYLPSKGAGNNVLVIDGQQKRFCCQSCVSEYSQVG [K41S]: the abundance fitness is 0.027 ± 0.094.

As to IMNCCEQCGEYLPSKGAGNNVLVIDGQQKRFCCQSCVSEYMQVG [K41M], the abundance fitness was -0.059 ± 0.12.

IMNCCEQCGEYLPSKGAGNNVLVIDGQQKRFCCQSCVSEYYQVG [K41Y]: the abundance fitness was -0.41 ± 0.25.

For IMNCCEQCGEYLPSKGAGNNVLVIDGQQKRFCCQSCVDEYKQVG [S38D], the abundance fitness was -0.081 ± 0.16.

Take IMNCCEQCGEYLPSKGAGNNVLVIDGQQKRFCCQSCVMEYKQVG [S38M]: the abundance fitness is -0.038 ± 0.11.

IMNCCEQCGEYLPSKGAGNNVLVIDGQQKRFCCQSCVHEYKQVG [S38H]: the abundance fitness is -0.183 ± 0.32.

For IMNCCEQCGEYLPSKGAGNNVLVIDGQQKRFCCQSCVQEYKQVG [S38Q], the abundance fitness was -0.01 ± 0.16.

As to IMNCCEQCGEYLPSKGAGNNVLVIDGQQKRFCCQSCVWEYKQVG [S38W], the abundance fitness is -0.197 ± 0.092.

On to IMNCCEQCGEYLPSKGAGNNVLVIDGQQKRFCCQSCVIEYKQVG [S38I], for which the abundance fitness is -0.106 ± 0.25.

As for IMNCCEQCGEYLPSKGAGNNVLVIDGQQKRFCCQSCVCEYKQVG [S38C], the abundance fitness was -0.108 ± 0.14.

As for IMNCCEQCGEYLPSKGAGNNVLVIDGQQKRFCCQSCVGEYKQVG [S38G], the abundance fitness is -0.024 ± 0.071.

As to IMNCCEQCGEYLPSKGAGNNVLVIDGQQKRFCCQSCVLEYKQVG [S38L], the abundance fitness was -0.038 ± 0.081.

Regarding IMNCCEQCGEYLPSKGAGNNVLVIDGQQKRFCCQSCVAEYKQVG [S38A], the abundance fitness was found to be 0.019 ± 0.082.

For the variant IMNCCEQCGEYLPSKGAGNNVLVIDGQQKRFCCQSCVTEYKQVG [S38T], the abundance fitness was -0.113 ± 0.12.

IMNCCEQCGEYLPSKGAGNNVLVIDGQQKRFCCQSCVEEYKQVG [S38E]: the abundance fitness turned out to be 0.062 ± 0.09.

Turning to IMNCCEQCGEYLPSKGAGNNVLVIDGQQKRFCCQSCVPEYKQVG [S38P], the abundance fitness is -0.329 ± 0.19.

For IMNCCEQCGEYLPSKGAGNNVLVIDGQQKRFCCQSCVKEYKQVG [S38K], the abundance fitness was -0.025 ± 0.11.

Consider IMNCCEQCGEYLPSKGAGNNVLVIDGQQKRFCCQSCVSEDKQVG [Y40D], for which the abundance fitness was -0.057 ± 0.18.

For IMNCCEQCGEYLPSKGAGNNVLVIDGQQKRFCCQSCVSETKQVG [Y40T], the abundance fitness worked out at 0.11 ± 0.11.

As for IMNCCEQCGEYLPSKGAGNNVLVIDGQQKRFCCQSCVSEMKQVG [Y40M], the abundance fitness is -0.167 ± 0.12.

In the case of IMNCCEQCGEYLPSKGAGNNVLVIDGQQKRFCCQSCVSEFKQVG [Y40F], the abundance fitness is -0.334 ± 0.4.

For IMNCCEQCGEYLPSKGAGNNVLVIDGQQKRFCCQSCVSECKQVG [Y40C], the abundance fitness worked out at 0.429 ± 0.29.

On to IMNCCEQCGEYLPSKGAGNNVLVIDGQQKRFCCQSCVSEIKQVG [Y40I], for which the abundance fitness was -0.249 ± 0.14.

With IMNCCEQCGEYLPSKGAGNNVLVIDGQQKRFCCQSCVSEGKQVG [Y40G], the abundance fitness came out at 0.057 ± 0.096.

The record behind these values is the Human Domainome abundance scans (Beltran et al. 2025).
